How the values were obtained:
[1] = biological target: aTm1^252–334 (Drosophila melanogaster); assay: ITC
[2] = biological target: GST-tagged Khc^848–941 (Drosophila) (UniProt P17210); assay: SPR
[3] = tested on: aTm1 252-334 (Drosophila melanogaster); assay: EMSA

GST-tagged Khc^848–941 (Drosophila), sequence (P17210 848-941): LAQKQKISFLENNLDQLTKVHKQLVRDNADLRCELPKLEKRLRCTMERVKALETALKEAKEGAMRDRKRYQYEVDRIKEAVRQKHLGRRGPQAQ

Row | Kd [1] | Kd [2] | Substance | Kd [3]
1 | 10 µM | 0.141 µM | aTm1^252–334 (domain or fragment) | –
2 | – | – | UUUUUUUUUUUUUUUUUUUUUUUUU [oligo-(U25) RNA] | > 10 µM
